Drawing on patent US20220204603A1 (PHARMABCINE, published 2022), this text covers koff and OD for four molecules.

Experiment [1] deals with T1, Ang2 immobilized on a biosensor (Octet off-rate screening) (Homo sapiens (Human), UniProt O15123 19-496).
T1 construct: also called Ang2 antigen; not shown: It is a His tag if hAng2-his (R&D 623-AN/CF) was used, or an Fc if hAng2-Fc (PharmAbcine) was used
T1 sequence: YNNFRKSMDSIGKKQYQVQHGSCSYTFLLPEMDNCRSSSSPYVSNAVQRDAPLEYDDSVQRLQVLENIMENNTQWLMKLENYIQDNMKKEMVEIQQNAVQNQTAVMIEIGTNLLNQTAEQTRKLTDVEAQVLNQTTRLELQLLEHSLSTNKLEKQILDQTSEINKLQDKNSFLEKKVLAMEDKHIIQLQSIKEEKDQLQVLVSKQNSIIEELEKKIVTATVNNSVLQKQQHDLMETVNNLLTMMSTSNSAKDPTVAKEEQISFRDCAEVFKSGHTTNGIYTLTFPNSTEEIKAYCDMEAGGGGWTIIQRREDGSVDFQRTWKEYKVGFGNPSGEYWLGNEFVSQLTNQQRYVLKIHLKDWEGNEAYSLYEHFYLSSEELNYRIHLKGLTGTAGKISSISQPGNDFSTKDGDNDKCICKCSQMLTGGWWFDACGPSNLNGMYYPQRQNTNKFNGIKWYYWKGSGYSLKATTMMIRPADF
Nature of the experiment: dissociation rate screening of optimized clones (method as in Example 3, Octet; not restated). On the technique in general: In BLI a coated tip is dipped into the sample, and binding shifts an interference pattern.

Experiment [2] deals with T2, His-tagged human Ang1 (R&D systems, 923-AN/CF) (human, UniProt Q15389 20-498, limits assumed).
T2 construct: Bought protein; also called hAng1-his; not shown: His tag
T2 sequence (looked up): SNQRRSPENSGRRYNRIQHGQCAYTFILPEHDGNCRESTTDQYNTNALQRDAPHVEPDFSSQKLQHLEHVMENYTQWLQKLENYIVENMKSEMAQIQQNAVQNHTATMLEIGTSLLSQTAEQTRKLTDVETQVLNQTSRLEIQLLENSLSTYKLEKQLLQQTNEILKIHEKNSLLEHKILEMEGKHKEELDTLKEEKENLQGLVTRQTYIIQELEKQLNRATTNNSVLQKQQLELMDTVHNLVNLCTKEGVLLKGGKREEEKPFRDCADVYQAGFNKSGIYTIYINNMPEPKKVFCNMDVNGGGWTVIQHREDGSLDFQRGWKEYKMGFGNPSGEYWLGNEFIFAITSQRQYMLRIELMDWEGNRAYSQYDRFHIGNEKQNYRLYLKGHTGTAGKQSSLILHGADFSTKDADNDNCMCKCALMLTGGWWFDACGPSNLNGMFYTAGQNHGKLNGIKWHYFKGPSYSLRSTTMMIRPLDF
Nature of the experiment: phage ELISA, antigen coated at 1 µg/ml, anti-M13-HRP.

Experiment [3] addresses Ang2 immobilized on a biosensor (Octet off-rate screening) (Homo sapiens (Human)) (UniProt O15123). Nature of the experiment: dissociation rate screening of optimized clones (method as in Example 3, Octet; not restated).

B1: No. O10 optimized clone (screening of scFv phage library of No. 8 CDR3 variants) (scFv, V domains shown)
VH: QVQLVESGGGLVKPGGSLRLSCAASGFTFSSYSMNWVRQAPGKGLEWVSSISASDGATYYADSVRGRFTISRDNSRSTLYLQMNSLRAEDTAVYYCAKILVGYSGPMGGMDVWGQGTTVTVSS
VL: DIQMTQSPSSLSASVGDRVTITCRASRDISNYLAWYQQKPGKAPKSLIYGASNLQSGVSSQFSGSGSGTDFTLTINSLQPEDSATYYCQQYYSYPLTFGGGTKVDIKR
The term koff denotes the first-order rate constant of dissociation. The low end stands for a long-lived complex, the high end for a short-lived complex. B1 returned a koff in experiment [1] of 3.92e-05 s⁻¹.

B2: No. O12 optimized clone (screening of scFv phage library of No. 8 CDR3 variants) (scFv, V domains shown)
VH: QVQLVESGGGLVKPGGSLRLSCAASGFTFSSYSMNWVRQAPGKGLEWVSSISASDGATYYADSVRGRFTISRDNSRSTLYLQMNSLRAEDTAVYYCAKSLASYSGPMGGMDVWGQGTTVTVSS
VL: DIQMTQSPSSLSASVGDRVTITCRASRDISNYLAWYQQKPGKAPKSLIYGASNLQSGVSSQFSGSGSGTDFTLTINSLQPEDSATYYCQQYYSYPLTFGGGTKVDIKR
As for B2, the koff in experiment [1] came out at 1.7e-05 s⁻¹.

B3: No. 3 monoclonal scFv phage (scFv)
chain: QMQLVQSGGGLVQPGRSLKLSCAASGFSFDDYAMHWVRQAPGKGLEWVATIKDDGSQTYYVDSVKGRFTISRDNAKSSLFLQMNSLRAEDTAVYYCTTEGLMNGLHFDMWGQGTMVTVSSLVLTQPPSVSGAPGQGVTISCTGSSSNIGAGYDVHWYQQFPGTAPKLLISGNNNRPSGLPDRFSGSKSGTSASLAITGLQAEDEADYYCQSYDSRLGVVFGGGTKLTVLG
Molecule B3 registered an OD in experiment [2] of 0.025 OD.

B4: No. O4 optimized clone (screening of scFv phage library of No. 8 CDR3 variants) (scFv, part only; not given: scFv linker, part only)
scFv, part: QVQLVESGGGLVKPGGSLRLSCAASGFTFSSYSMNWVRQAPGKGLEWVSSISASDGATYYADSVRGRFTISRDNSRSTLYLQMNSLRAEDTAVYYCAKTLAGYSGPMGGMDVWGQGTTVTVSSDIQMTQSPSSLSASVGDRVTITCRASRDISNYLAWYQQKPGKAPKSLIYGASNLQSGVSSQFSGSGSGTDFTLTINSLQPEDSATYYCQQYYSYPLTFGGGTKVDIKR
In experiment [3], B4 registered a koff of 9.01e-05 s⁻¹.
